The values that follow come from publication PMC3808375, “Reduction of Decoy Receptor 3 Enhances TRAIL-Mediated Apoptosis in Pancreatic Cancer” (PLoS ONE, 2013).

A word on the kon: it is a measure of how fast the partners come together. The Kd is the equilibrium constant for the complex coming apart. As a reminder, the koff is the rate constant with which the complex falls apart.

Like-named read-outs stand apart in the source and are kept apart here.

In assay [1] the target is recombinant human DcR3 (decoy receptor 3) (human) (UniProt O95407). The assay is described as follows: SPR; Biacore 3000; DcR3 amine-coupled to a CM5 chip; TRAIL 1-2048 nM or LIGHT 1-512 nM flowed at 20 µl/minute; HBS-EP buffer (10 mM HEPES pH 7.4, 150 mM NaCl, 3.4 mM EDTA, 0.005% Surfactant P20); 1:1 binding model, global analysis.
Sequence of recombinant human DcR3 (decoy receptor 3) (human) (O95407 30-300): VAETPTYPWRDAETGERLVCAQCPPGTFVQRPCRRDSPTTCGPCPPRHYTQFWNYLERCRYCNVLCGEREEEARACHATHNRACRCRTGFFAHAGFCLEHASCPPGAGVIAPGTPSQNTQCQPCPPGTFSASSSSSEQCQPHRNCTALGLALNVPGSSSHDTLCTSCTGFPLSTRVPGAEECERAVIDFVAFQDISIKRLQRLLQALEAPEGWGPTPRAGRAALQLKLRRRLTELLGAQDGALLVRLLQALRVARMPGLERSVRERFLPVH
The target is the same in assay [2]. Described as above. The source holds these as a separate data set.

In the case of “recombinant human TRAIL (TNF-related apoptosis-inducing ligand) (from UniProt P50591 1-281)”, the kon in assay [1] worked out at 19700 M⁻¹ s⁻¹. For the same substance, in assay [2], the Kd came to 52.8 nM, the koff was 0.00104 s⁻¹ and the kon came to 19400 M⁻¹ s⁻¹.
